The results in this text go back to publication PMC13270198.

“And” between values parts separate entries of the source, which are not always exact repeats. Identical values can stand only once.

Data set [1] has as its system Cas12a2 (SuCas12a2) (Sulfuricurvum sp. PC08-66). The experiment in a line: fluorescence anisotropy. Particulars: phosphorothioate (non-hydrolyzable); Fluorescence anisotropy: 25 mM HEPES pH 7.2, 150 mM KCl, 2 mM MgCl2, 5 ug/ml BSA, 10 nM probe, read at 30 min; temperature not stated.
Data set [2] shares this test system. The experiment in a line: competition (cleavage inhibition). Particulars: phosphorothioate (non-cleavable); Fluorescence anisotropy: 25 mM HEPES pH 7.2, 150 mM KCl, 2 mM MgCl2, 5 ug/ml BSA, 10 nM probe, read at 30 min; temperature not stated.

For PT collateral ssRNA, in data set [1], the dissociation constant (Kd) is 6.7 nM and 37 nM and 19 nM. As for PT-ssRNA inhibitor, the Ki in data set [2] was 610 nM and 110 nM. On to PT-ssDNA inhibitor, for which the inhibition constant Ki in data set [2] was 120 nM and 90 nM and 50 nM.
